Our source for the Kd values is patent publication US9394371 (Scripps Research, dated 2016).

For assay [1], the target named is AIP-1 (S. aureus I native cyclic signaling peptide) (Staphylococcus aureus). As to the kind of experiment: competition ELISA on AP1-BSA. In general terms: An ELISA detects its analyte on a solid surface through an enzyme-linked reagent.
Assay [2] addresses T1, AIP-3 (S. aureus III native cyclic signaling peptide) (Staphylococcus aureus).
T1 construct: also called AIP3 wt; AIP-III
Description: competition ELISA on AP1-BSA.

B1: 3B1 (antibody, V domains shown)
VH: QVQLQESGPGLVKPSETLSLTCTVSGGSISSYYWSWIRQPPGKGLEWIGYIYYSGNTNSNPSLKSRVTISVDTSKNQFSLKLSSVTAADTAVYYCARTYYDSSGYYYRAFDIWGQGTMVTVSS
VL: DIQMTQSPSSLSASEGDRVTITCRASQGIRNDLGWYQQKPGKAPKRLIYAASSLQSGVPLRFSGSGSGTEFTLTISSLQPEDFATYYCLQYNSYPWTFGQGTKVEIKR
In the case of B1, in assay [1], the Kd (usually the concentration at which binding is half-saturated) was ~6 µM.

B2: AP1-15B4 (antibody, V domains shown)
VH: EVHLVESGGDLVKPGGSLKLSCAASGFAFSDFAMSWVRQTPEKRLEWVAIIKSDDSYTYYPDSVRDRFTISRDNARNTLYLQMTSLRSEDTALYYCTKIYDAYFYAMDYWGQGTSVTVSS
VL: DIVRTQSPLSLSVSLGDQASISCRSSQSLLHSNGNTYLHWYLQKPGQSPKLLIYKVSNRFSGVPDRFSGSGSGTDFTLKISILEAEDLGIYFCSQSTHFPTFGGGTKLEIK
notes: also called mAb AP1-15B4; AP1 Sups 15B4
Turning to B2, the equilibrium dissociation constant (Kd) in assay [2] is ~1 µM.
